For one molecule, binding result and Kd results are on record in article PMC11229354, “PRMT5-mediated arginine methylation of FXR1 is essential for RNA binding in cancer cells”.

Test in all cases: EMSA; 150 mM KCl, 1 mM Mg2+; EMSA: 50 mM Tris-HCl pH 7.4, 1 mM MgCl2, 0.1 mM EDTA, 150 mM KCl (or LiCl, printed LiCl2), 1 mM DTT, 1 U/ul RNase inhibitor, 100 ug/ml BSA, ~25 C, 20 min; 0.5 pmol RNA in 10 ul
What all share (conditions): protein: recombinant; tags: N-terminal GST (pGEX-6P-1); label: 5' 32P or 5' ATTO 550; intramolecular G4 (plausible structure)

One data set deals with GST-FXR1 S382-P476 R386K (human, UniProt P51114 382-476, R386K).
GST-FXR1 S382-P476 R386K, sequence (P51114 382-476 R386K): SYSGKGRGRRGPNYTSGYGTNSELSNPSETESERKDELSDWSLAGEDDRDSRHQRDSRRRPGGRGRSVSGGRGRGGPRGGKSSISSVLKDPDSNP
Data set [1] deals with GST-FXR1 S382-P476 R386-459K (human, UniProt P51114 382-476, R386K;R388K;R453K;R455K;R459K).
GST-FXR1 S382-P476 R386-459K, sequence (P51114 382-476 R386K/R388K/R453K/R455K/R459K): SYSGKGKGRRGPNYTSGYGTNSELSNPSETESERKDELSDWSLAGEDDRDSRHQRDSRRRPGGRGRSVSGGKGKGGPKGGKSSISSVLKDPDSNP
A further data set deals with GST-FXR1 S382-P476 WT (human, UniProt P51114 382-476).
GST-FXR1 S382-P476 WT, sequence (P51114 382-476): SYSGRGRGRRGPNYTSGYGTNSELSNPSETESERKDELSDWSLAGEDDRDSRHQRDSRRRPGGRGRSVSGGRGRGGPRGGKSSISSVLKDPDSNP

For orientation: Kd means the concentration at which binding is half-saturated.

As to GGGGGUGAGGGUCCCAUGUGGUGGCACAGG (structured_RNA) [30-mer p21 3'UTR G4-RNA (seg1)], the binding result (with GST-FXR1 S382-P476 R386K; in data set [1]) was “no binding” in each case. Also, in the data set with GST-FXR1 S382-P476 WT, the equilibrium dissociation constant (Kd) stood at 25 nM.
